From patent US20230416363A1 (KADMON, published 2023) come the findings set out here.

Test [1] has as its target T1, mouse PD-1 expressed on cells (mouse, UniProt Q02242 25-288).
T1 construct: whole, on cells
T1 sequence (looked up): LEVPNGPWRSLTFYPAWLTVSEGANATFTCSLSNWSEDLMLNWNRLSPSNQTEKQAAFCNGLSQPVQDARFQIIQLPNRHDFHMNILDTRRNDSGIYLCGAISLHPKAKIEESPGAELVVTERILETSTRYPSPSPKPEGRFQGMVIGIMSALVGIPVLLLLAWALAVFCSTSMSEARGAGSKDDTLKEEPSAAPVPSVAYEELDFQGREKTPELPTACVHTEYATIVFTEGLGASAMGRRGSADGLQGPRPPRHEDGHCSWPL
The experiment in a line: flow cytometry, mPD1-eff cells.

Test [2] deals with T2, hPD1 (soluble, ELISA of Example 20) (human, UniProt Q15116 25-167, limits assumed). Kind of test: blocking ELISA, hPD1 to hPDL1.
T2 sequence (Q15116 25-167 limits assumed): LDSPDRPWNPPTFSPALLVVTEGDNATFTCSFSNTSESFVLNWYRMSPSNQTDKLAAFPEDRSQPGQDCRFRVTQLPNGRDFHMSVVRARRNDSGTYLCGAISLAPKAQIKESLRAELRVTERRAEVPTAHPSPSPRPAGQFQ
Test [3] deals with T3, mPD1 (soluble, ELISA of Examples 20 and 24) (mouse, UniProt Q02242 25-167, limits assumed).
T3 construct: also called Biotin-mPD1
T3 sequence (looked up): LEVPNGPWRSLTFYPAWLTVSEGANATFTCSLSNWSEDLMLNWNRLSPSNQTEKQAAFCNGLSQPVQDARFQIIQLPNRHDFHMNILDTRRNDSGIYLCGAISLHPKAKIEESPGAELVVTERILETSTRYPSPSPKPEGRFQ
Kind of test: ELISA, mPD1.

The target in test [4] is T4, human PD-1 expressed on cells (human, UniProt Q15116 25-288).
T4 construct: whole, on cells
T4 sequence (Q15116 25-288): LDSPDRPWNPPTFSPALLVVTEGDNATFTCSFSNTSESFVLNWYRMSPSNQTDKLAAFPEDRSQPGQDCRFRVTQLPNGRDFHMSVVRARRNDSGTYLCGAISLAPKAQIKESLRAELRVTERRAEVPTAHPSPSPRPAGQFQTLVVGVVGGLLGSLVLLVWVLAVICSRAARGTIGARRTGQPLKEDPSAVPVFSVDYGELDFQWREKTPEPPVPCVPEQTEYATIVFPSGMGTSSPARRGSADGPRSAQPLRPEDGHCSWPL
Kind of test: flow cytometry, hPD1-293 cells.

In test [5] the target is T5, mPD-1-his (mouse, UniProt Q02242 25-167, limits assumed).
T5 construct: domain: IgV domain
T5 sequence: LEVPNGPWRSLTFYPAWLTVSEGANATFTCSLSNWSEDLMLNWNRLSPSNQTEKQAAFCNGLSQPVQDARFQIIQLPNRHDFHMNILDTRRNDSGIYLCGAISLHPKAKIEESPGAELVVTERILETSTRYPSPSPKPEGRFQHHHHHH
Kind of test: SPR Biacore, mPD1-his.

Test [6] deals with T6, hPD-1-Fc (human, UniProt Q15116 25-167).
T6 construct: domain: IgV domain; also called human PD-1-Fc; not shown: human IgG1 Fc
T6 sequence (Q15116 25-167 limits assumed): as the sequence (Q15116 25-167 limits assumed) above
The experiment in a line: SPR Biacore, hPD1-Fc.

Test [7] addresses T1, mouse PD-1 expressed on cells. Kind of test: flow cytometry, mPD1-293 cells.
The target in test [8] is T3, mPD1 (soluble, ELISA of Examples 20 and …). Kind of test: blocking ELISA, mPD1 to mPDL1.
Test [9] shares this target. Kind of test: ELISA, biotin-mPD1 on streptavidin.
The target of test [10] is T7, mPD-1-Fc (mouse; human, UniProt Q02242 25-167, limits assumed).
T7 construct: domain: IgV domain; not shown: human IgG1 Fc
T7 sequence (looked up): T3 sequence (looked up)
The experiment in a line: SPR Biacore, mPD1-Fc.

Test [11] concerns the target T2, hPD1 (soluble, ELISA of Example 20). The experiment in a line: ELISA, hPD1.
The target in test [12] is T3, mPD1 (soluble, ELISA of Examples 20 and …). Kind of test: competition ELISA, blocking of mPD-L1 binding to mPD-1.
Test [13] shares this target. The experiment in a line: ELISA, dose-response binding to mPD-1.
Test [14] addresses T1, mouse PD-1 expressed on cells. Kind of test: flow cytometry on mPD-1-HEK293 cells.
The target in test [15] is T5, mPD-1-his. The experiment in a line: kinetics (Ka/Kd/KD; method not named), mPD-1-his.
Test [16] addresses T7, mPD-1-Fc. The experiment in a line: kinetics, mPD-1-Fc (off rate outside the machine limit).
Test [17] has as its target T1, mouse PD-1 expressed on cells. Kind of test: cell-based or functional assay.

Changes are numbered by the printed parent chain.

B1: m2A1 (antibody, V domains shown)
VH: QVQLVQSGAEVKKPGASVKVSCKASGHTFTSYYIHWVRQAPGQGLEWMGIINPSGGSTSYAQKFQGRVTMTRDTSTSTVYMELSSLRSEDTAVYYCARDRAYGGAGDYWGQGTLVTVSS
VL: DIQMTQSPSSLSASVGDRVTITCRASRGISSWLAWYQQKPGKAPKLLIYAASSLQSGVPSRFSGSGSGTDFTLTISSLQPEDFATYYCQQSYSPPWTFGQGTKVEIK
notes: R3A9 derivative; also called m2AM (apparent misprint)
Consider B1, for which the concentration for a half-maximal effect (EC50) in test [1] came out at 0.253 nM; in test [3], 0.304 nM; in test [4], 0.987 nM; in test [7] it was 0.433 nM; in test [9], 0.14 nM; in [11] it was 0.146 nM. Also, the results for the IC50 in [2] and in test [8] were 6.01 nM and 0.442 nM, respectively. Besides, the Kd in [5] amounted to 2.83 nM; in [6], 1.67 nM; in [10], 2.73 nM. Also, the off-rate (koff) in [5] was 0.00107 s⁻¹; in [6] it was 0.000401 s⁻¹; in test [10], 0.000905 s⁻¹. Besides, the results for the kon in test [5], in [6] and in test [10] were 375000 M⁻¹ s⁻¹, 240000 M⁻¹ s⁻¹ and 333000 M⁻¹ s⁻¹, respectively.

B2: 2C-m3A7/IL-15 (other)
light: DIQMTQSPSSLSASVGDRVTITCRASRSISNWLAWYQQKPGKAPKLLIYAASSLQSGVPSRFSGSGSGTDFTLTISSLQPEDFATYYCQQSYSAPVTFGQGTKVEIKRADAAPTVSIFPPSSEQLTSGGASVVCFLNNFYPKDINVKWKIDGSERQNGVLNSWTDQDSKDSTYSMSSTLTLTKDEYERHNSYTCEATHKTSTSPIVKSFNRNEC
heavy: QVQLVQSGAEVKKPGASVKVSCKASGHTFTSYYIHWVRQAPGQGLEWMGIINPSGGSTSYAQKFQGRVTMTRDTSTSTVYMELSSLRSEDTAVYYCARDRAYGGAGDYWGQGTLVTVSSAKTTAPSVYPLAPVCGDTTGSSVTLGCLVKGYFPEPVTLTWNSGSLSSGVHTFPAVLQSDLYTLSSSVTVTSSTWPSQSITCNVAHPASSTKVDKKIEPRGPTIKPCPPCKCPAPNAAGGPSVFIFPPKIKDVLMISLSPIVTCVVVDVSEDDPDVQISWFVNNVEVHTAQTQTHREDYNSTLRVVSALPIQHQDWMSGKEFKCKVNNKDLGAPIERTISKPKGSVRAPQVYVLPPPEEEMTKKQVTLTCMVTDFMPEDIYVEWTNNGKTELNYKNTEPVLDSDGSYFMYSKLRVEKKNWVERNSYSCSVVHEGLHNHHTTKSFSRTPGSCPPPVSIEHADIRVKNYSVNSRERYVCNSGFKRKAGTSTLIECVINKNTNVAHWTTPSLKCIRDPALVHQRPAPPSGGSGGGGSGGGSGGGGSLQNWIDVRYDLEKIESLIQSIHIDTTLYTDSDFHPSCKVTAMNCFLLELQVILHEYSNMTLNETVRNVLYLANSTLSSNKNVAESGCKECEELEEKTFTEFLQSFIRIVQMFINTS
notes: antibody-cytokine fusion
As to B2, in test [12], the “IC50 (read off the curve)” value was about 0.2 nM. Besides, the “EC50 (read off the curve)” value is about 0.2 nM in test [13], about 1 nM in test [14] and about 0.7 nM in test [17]. The results for the Kd in test [15] and in test [16] were 0.247 nM and 0.0593 nM, respectively.

B3: 1N-m3A7/IL-15 (other)
light: B2 light
heavy 1: QVQLVQSGAEVKKPGASVKVSCKASGHTFTSYYIHWVRQAPGQGLEWMGIINPSGGSTSYAQKFQGRVTMTRDTSTSTVYMELSSLRSEDTAVYYCARDRAYGGAGDYWGQGTLVTVSSAKTTAPSVYPLAPVCGDTTGSSVTLGCLVKGYFPEPVTLTWNSGSLSSGVHTFPAVLQSDLYTLSSSVTVTSSTWPSQSITCNVAHPASSTKVDKKIEPRGPTIKPCPPCKCPAPNAAGGPSVFIFPPKIKDVLMISLSPIVTCVVVDVSEDDPDVQISWFVNNVEVHTAQTQTHREDYNSTLRVVSALPIQHQDWMSGKEFKCKVNNKDLGAPIERTISKPKGSVRAPQVYVYPPPEEEMTKKQVTLTCMVTDFMPEDIYVEWTNNGKTELNYKNTEPVLDSDGSYAMVSKLRVEKKNWVERNSYSCSVVHEGLHNHHTTKSFSRTPGK
heavy 2: ITCPPPVSIEHADIRVKNYSVNSRERYVCNSGFKRKAGTSTLIECVINKNTNVAHWTTPSLKCIRDPALVHQRPAPPSGGSGGGGSGGGSGGGGSLQNWIDVRYDLEKIESLIQSIHIDTTLYTDSDFHPSCKVTAMNCFLLELQVILHEYSNMTLNETVRNVLYLANSTLSSNKNVAESGCKECEELEEKTFTEFLQSFIRIVQMFINTSGGGGSGGGGSGGGGSGGGGSGGGGSGGGGSQVQLVQSGAEVKKPGASVKVSCKASGHTFTSYYIHWVRQAPGQGLEWMGIINPSGGSTSYAQKFQGRVTMTRDTSTSTVYMELSSLRSEDTAVYYCARDRAYGGAGDYWGQGTLVTVSSAKTTAPSVYPLAPVCGDTTGSSVTLGCLVKGYFPEPVTLTWNSGSLSSGVHTFPAVLQSDLYTLSSSVTVTSSTWPSQSITCNVAHPASSTKVDKKIEPRGPTIKPCPPCKCPAPNAAGGPSVFIFPPKIKDVLMISLSPIVTCVVVDVSEDDPDVQISWFVNNVEVHTAQTQTHREDYNSTLRVVSALPIQHQDWMSGKEFKCKVNNKDLGAPIERTISKPKGSVRAPQVYVLPPPEEEMTKKQVTLLCMVTDFMPEDIYVEWTNNGKTELNYLNWEPVLDSDGSYFMYSKLRVEKKNWVERNSYSCSVVHEGLHNHHTTKSFSRTPGK
notes: antibody-cytokine fusion
In the case of B3, the “IC50 (read off the curve)” value in test [12] was about 0.3 nM. Also, the “EC50 (read off the curve)” value in test [13] is about 0.2 nM; in test [14], about 0.8 nM; in [17], about 0.8 nM. Besides, the Kd in [15] amounted to 0.457 nM; in test [16], 0.0878 nM.

B4: 2N-m3A7/IL-15 (other)
light: B2 light
heavy: B3 heavy 2 with L609T, L635K, W637T
notes: antibody-cytokine fusion
B4: the “IC50 (read off the curve)” value in test [12] was about 0.3 nM. Besides, the “EC50 (read off the curve)” value was about 0.3 nM in test [13], about 1 nM in test [14] and about 2 nM in test [17]. For the same molecule, the Kd was found to be 0.283 nM in test [15] and 0.00909 nM in test [16].

B5: 1C-m3A7/IL-15 (other)
light: B2 light
heavy 1: B3 heavy 1
heavy 2: B2 heavy with T368L, K394L, T396W
notes: antibody-cytokine fusion
For the molecule B5, the “IC50 (read off the curve)” value in test [12] is about 0.3 nM. The “EC50 (read off the curve)” value is about 0.1 nM in [13], about 0.7 nM in test [14] and about 0.6 nM in test [17]. For the same molecule, the Kd in test [15] stood at 0.296 nM; in test [16], 0.0927 nM.
